# Source: a protein production outcome set (Wang et al. 2014)
# Test: label from the status in PepcDB records
row,Sequence,protein production
1,MSSECDGGSKAVMNGLAPGSNGQDKDMDPTKICTGKGAVTLRASSSYRETPSSSPASPQETRQHESKPGLEPEPSSADEWRLSSSADANGNAQPSSLAAKGYRSVHPNLPSDKSQDSSPLLNEVSSSLIGTDSQAFPSVSKPSSAYPSTTIVNPTIVLLQHNREQQKRLSSLSDPVSERRVGEQDSAPTQEKPTSPGKAIEKRAKDDSRRVVKSTQDLSDVSMDEVGIPLRNTERSKDWYKTMFKQIHKLNRDDDSDLYSPRYSFSEDTKSPLSVPRSKSEMSYIDGEKVVKRSATLPLPARSSSLKSSSERNDWEPPDKKVDTRKYRAEPKSIYEYQPGKSSVLTNEKMSRDISPEEIDLKNEPWYKFFSELEFGKPTNLDKDLSLCQTELEADLEKMETLNKAPSANVPQSSAISPTPEISSETPGYIYSSNFHAVKRESDGAPGDLTSLENERQIYKSVLEGGDIPLQGLSGLKRPSSSASTKVHSRTFNTSNALGPVCKHKKPLSAAKACISEILPSKFKPRLSAPSALLQEQKSILLPSEKAQSCENLCVSGSLNDSKRGLPLQVGGSIENLLMRSRRDYDSKSSSTMSLQEYSTSGRRPCPLSRKAGMQFTMLYRDMHQINRSGLFLGSISSSSSVRDLASHFEKSSLALSRGELGPSQEGSEHIPKHTVSSRITAFEQLIQRSRSMPSLDLSGRLSKSPTPVLSRGSLTSARSAESLLESTKLHPKEMDGMNSSGVYASPTCSNMAHHALSFRGLVPSEPLSTCSDDVDRCSNISTDSREGSGGSVHGDFPKHRLNKCKGTCPASYTRFTTIRKHEQQQTSRQPEWRLDARGDKSTLLRNIYLMSPLPFRLKKPLHHHPRQPSPGDSSGLLVGQKPDLPSQPHQDQPPSGGKPVVPTRLSSRHTMARLSRSSEPSQERPTALEDYPRAINNGNSVPYSDHSLDRNNNPQSELAPSRGDSESPRHFIPADYLESTEEFIRRRHDDKEMRPARAKFDFKAQTLKELPLQKGDIVYIYKQIDQNWYEGEHHGRVGIFPRTYIELLPPAEKAQPKKLTPVQVLEYGEAIAKFNFNGDTQVEMSFRKGERITLLRQVDENWYEGRIPGTSRQGIFPITYVDVIKRPLVKNPVDYMDLPFSSSPSRSATASPQQPQAQQRRVTPDRSQTSQDLFSYQALYSYIPQNDDELELRDGDIVDVMEKCDDGWFVGTSRRTKQFGTFPGNYVKPLYL,not failed
2,MSSESRNLNRFFLYFAGILIFFIYITPCLATYNFEGTPEQDELIEITSGTVKGGLYVDGGEGLKKTPYVQEFNVPGDVVTWARVYVGVWGGTEEKTGTLDLTINGEEFESLDLEGKNDKGDDEDQNPAIYCTGHGVYWIAYDVGTNISTGPVTVEAQTEGDIDGRVYGIILAAVYEDKEGQSTKYWVEEGNINLHGKGWSETLASTHDEGYADFSGKVDTDKYNTANLAVVYLCGTPGLDDSLYFNEEQLSDGENSNDIANSKSYFDFKFFDVLDLLEEDDNELKFQRDEEDYVHPVLAALTLGTGEEGTSDLIVSGLTVPLLYAGKDNTIKASIKNIGKDSAYGFQAALYADGEIVSTAPVSSLSSGKSKTIEFNWKPAWDGEQALKVYVDYTNKKKETCEVNNWNSPFLAKVVDLTPPELEIDYPEDGARVDAGYLTVSGTIEDTNRNLTVDVNGQNALISGESWSASVPVVSGPNTIVVSAVDGENNTGRELIVVEGKESSTDSKESSQSDLTVSSKAENETEPVNQSILGSQTREYEKQAVLSPISEGIGFISAILFLRYRNRGKRL,failed
3,MSSFVLDKEAFVRRVKRLYTEWRAPSIGHDDALRNLDCIMSIVGVEEDVMYSKSMALQLWLLGYELTDTISVFCSDAVYFLTSKKKIEFLKQTQNITEEGFPEINLLVRDRTDKDQGNFEKLIKALQNSKKGKRLGVFAKDAYPGEFSEAWKKSLTASKFEHVDISTIIAYLMCPKDESEINNIRKASLVSMDIFNKYLKDEIMDIIDSDRKVKHNKLSDGCEAAIGEKKYTSGLDPRLLDMAYPPIIQSGGAYSLKFSAVADKNPLHFGVIVCSLGARYKSYCSNISRTFLVNPTEAMQENYTFLVSV,failed
4,MSSIKIECVLPENCRCGESPVWEEVSNSLLFVDIPAKKVCRWDSFTKQVQRVTMDAPVSSVALRQSGGYVATIGTKFCALNWKEQSAVVLATVDNDKKNNRFNDGKVDPAGRYFAGTMAEETAPAVLERHQGALYSLFPDHHVKKYFDQVDISNGLDWSLDHKIFYYIDSLSYSVDAFDYDLQTGQISNRRSVYKLEKEEQIPDGMCIDAEGKLWVACYNGGRVIRLDPVTGKRLQTVKLPVDKTTSCCFGGKNYSEMYVTCARDGMDPEGLLRQPEAGGIFKITGLGVKGIAPYSYAG,failed
5,MSSKEEILSILEAFASTERMGSFFLDNATADFLFIRPSGNPLDAKGFENMWSSGDLVLESAEITKVHKFELLGSNAAICVFTLGSKFTYKGTQNDDLPTVTSIFKKIDEKWKVAWMQRSSGQSDMTLWNE,not failed
6,MSSKIDALKITVLSLSLCFSVSSLSATVNKTVKQKKNVIYILTDDQRYDEVGFLNPRIDTPNMDKLAAGGVYFKNAFVTTALCSPSRATILTGQYMHNHGVVDNNNPAKESSVYFPSYLQEVGYETSFFGKWHMGGHGDSPQPGFDHWLSFAGQGHYYPKKDKKGRTNKININGERVDQKGYITDELTDYAVDWLDKRDSDKPFFMYLSHKAVHSNFDPAPRHKDQYSDVAIEVPESQADTPENYAGKPMWVKNQRNSWHGVDFPYHSEMDVQEYKRQYHRALSAVDDSLGRVLKWLKDNNLENDTIVMLMGDNGFMFGEHGLIDKRNAYEESMRVPLLAYAPGYFKPGTVVDEMVANLDIAPTILEIAGAKKPAHFDGDSWLPLAKNKEVNQWRENFLYEYYWEFNYPSTPTTFALRTDNYKLIQYHGVWDTEELYDLKNDPKEMNNLINTPKHQPLIAQMRHDLFNLLVNKKGDNVIPYTEKYTPGAVYRERDRGETADFPDNWLKKEGDDGLRTFLRIKPIKDKKDDKKKSAKH,failed
7,MSSLAQREERSSDGREPARAWAVTIVVLGLLLVIWPFVRTPPLPIAPAYAHLLGAWLGAVVALAAMARALRPHRRRGPPDA,failed
8,MSSLLGTFLYTLETTLPVFAMVFIGIGLRRIGWIDQGFIATASALVFKATLPTLVFLSIIRADLDTTLSISMLIFYFLATLASFALVWFWATKRVRQEDRGVYVQGAFRGNCGIVGLALAANLYGDYGLSAGGLLLGLVIVVYNSLSVIVLLAYQPGKTMSLSNTLRDIARNPLIIGVVLAIPFAAFEITLPGWVMTSGDYFASLTLPLALLCIGATVSLKSIRSDSGPAMGSSIWKMVSLPALCTLVAWLAGFEGRELGLMFLFFASPTAAASFVMVKALGGNDRMAANIIALTTLLASVTVTTGVFVLQSIGVA,failed
9,MSSLMMHCLIHVQELMNVKGIVVDELTGRSGPDHAKSLDPRTSLLRLITRPLGRVPPRESLDHFTRPPGRVSSPLPPSPSLDYILDVELQSLLHSALNQTLEHKEEKKTPAIHSTSHSTTLVEYSS,failed
10,MSSLTIILIAAISAVLAFLIIFLLKSILFPKKRARIEKNLKSGKYGAAIKDAKSILSKNPRDSEARYLLGKAYLADKKVDLAFIEFKTLNKTAVFNNPATEIEFRTIIADLYLKFQQPDEALKEFMLLNKRDPKNPKPYFQAGQIYESKNMSDQAIAYFQKAIEVDSRFAEAYASLGLLLFKANQIPEAEKAIATALKLAPDNSETLYYHGKILKSKKNYAQALSALEKAARKQEIRSKCFFERGCCYLETNSLEKAEFEFTRAIKSSKQLSAPEVLYSRYLLADCYERQRNIDQAIEQWEAISAVNPKFRNTAQKLAEYSDLRTNDHMKEYLTLIKEEFFKMCRDITEQYFDYPVQALKETKMGCTILAVEKGSEQWLNTRKKPQLLIFSRDGHTITESFLRSVHEEMKKQAVVTSHIITSGAFSPDAIKFAENRPFNLIDRQKLERIVEKVKFTF,failed
11,MSSLTSVELNFLVFRYLQESGFTHAAFTLGYEAGINKSNIDGNMVPPGALIKFVQKGLQYMEMEANLSNSEVDIDEDFSFFQPLDLISKDVKELQDMLREKKRKERDMEKERDRSKENDKGVEREHEGDRNRAKEKDRHEKQKEREREREKLEREKEREREKIEREKEREREKMEREIFEREKDRLKLEKEREIEREREREKIEREKSHEKQLGDADREMVIDQTDKEIAGDGSTGAEPMDIVMTPTSQTSHIPNSDVRILEGHTSEVCACAWSPSASLLASGSGDATARIWSIPEGSFKAVHTGRNINALILKHAKGKSNEKSKDVTTLDWNGEGTLLATGSCDGQARIWTLNGELISTLSKHKGPIFSLKWNKKGDYLLTGSVDRTAVVWDVKAEEWKQQFEFHSGPTLDVDWRNNVSFATSSTDSMIYLCKIGETRPAKTFTGHQGEVNCVKWDPTGSLLASCSDDSTAKIWNIKQSTFVHDLREHTKEIYTIRWSPTGPGTNNPNKQLTLASASFDSTVKLWDAELGKMLCSFNGHREPVYSLAFSPNGEYIASGSLDKSIHIWSIKEGKIVKTYTGNGGIFEVCWNKEGNKIAACFADNSVCVLDFRM,failed
